Results reported in publication PMC9894594, “Progressive Acceleration of Insulin Exposure Over 7 Days of Infusion Set Wear” (Diabetes Technology & Therapeutics, 2023).

What was measured:
Format in all cases: in vivo, human (participants with type 1 diabetes mellitus)
[1] = Adverse events during the crossover clamp study; conditions: both IIS types
From the text: (§1) We performed a prospectively enrolled randomized sequence two-way crossover study of the investigational CBX (Capillary Biomedical, Inc., Irvine, CA) and a commercial angled Teflon (MiniMed™ Silhouette™; Medtronic Diabetes Care, Northridge, CA; indicated for 3-day use) IIS for two weeklong home use periods with four in-patient euglycemic clamp sessions during each of the 7-day periods. Between the two periods, there was a wash out of 14 days (Supplementary Fig. S1).
WCG IRB approved the protocol and all associated documents used by participants before initiation of the study (Study No. 1283383) and during the study were registered in clinicaltrials.gov (NCT04398030). Participants aged 18–70 years, diagnosed with type 1 diabetes mellitus, and using rapid-acting insulin analog delivered through a Medtronic MiniMed insulin pump (model 530 or higher; Medtronic Diabetes Care) for at least 6 months were enrolled.

[2] = Insulin lispro pharmacokinetics after pump bolus during euglycemic clamp over 7 days of infusion set wear; conditions: for decline of median total insulin exposure (AUC0–300) from days 0 to 7: n.s.; for AUC0–300 (area under the insulin concentration curve, 0 to 300 min) / Cmax (maximum insulin concentration) / MRT (mean residence time) / t50% (early) (time to reach 50% of Cmax before peak) / t50% (late) (time to reach 50% of Cmax after peak) / tmax (time to maximum insulin concentration): 0.15 U/kg SC bolus by pump, plasma ELISA, median (25th–75th)
From the text: as §1
(§2) Euglycemic clamp experiments were performed at AMCR Institute (in Escondido, CA.) on days 0, 3, 5, and 7 in each treatment period (eight clamps per participant). Participants were admitted to AMCR the evening before the clamp study and glucose was stabilized overnight with intravenous (IV) insulin or glucose as needed. Personal pumps were set to 0.1 U/h overnight and throughout the clamp experiment. Once glucose was stable (95 ± 15 mg/dL) in the morning, IV insulin was stopped 20 min before administering a bolus of 0.15 U/kg of insulin lispro (Eli Lilly, Indianapolis, IN) by pump. Glucose was clamped at 95 ± 15 mg/dL for 300 min or terminated early if runaway hyperglycemia occurred.
Per participant and clamp, 30 plasma samples were collected in regular intervals and stored at −70°C. Samples were analyzed elsewhere (Northern Lights Mercodia Lispro ELISA, Mercodia AB, Uppsala, Sweden; lowest limit of quantification (LLOQ) = 1.0 mU/L, 94% accuracy[7]). Owing to the small sample size and the intrinsically greater variability in pharmacodynamic measures, the PK results are the only results detailed in this report.
(§3) PK parameters (area under the insulin concentration curve [AUC] over the first 60 or 300 min, respectively; time to maximum insulin concentration [tmax]; maximum insulin concentration [Cmax]; time to half-maximum insulin concentration, early and late [t50%], and mean residence time [MRT]) were tested for treatment effects. […] Estimated means were then back transformed and the ratio between treatments/days (equality means a ratio of 1) tested for significance using mixed model for repeated measures (two-sided, α = 0.05). For simplicity reasons, all data are presented as median (25th–75th percentiles) or mean ± standard deviation.

[3] = Euglycemic clamp pharmacodynamics (glucose infusion rate) after insulin lispro pump bolus; set-up: t50% (GIR, early) (time to reach 50% GIRmax before peak) / t50% (GIR, late) (time to reach 50% GIRmax after peak): unit: min; conditions: 0.15 U/kg SC bolus by pump, euglycemic clamp 300 min, median (25th–75th)
From the text: as §1, §2, §3

[4] = day 0 of IIS wear, CBX IIS, n = 6
[5] = day 0 of IIS wear, Control IIS, n = 6
[6] = day 3 of IIS wear, CBX IIS, n = 6
[7] = day 3 of IIS wear, Control IIS, n = 6
[8] = day 5 of IIS wear, CBX IIS, n = 6
[9] = day 5 of IIS wear, Control IIS, n = 6
[10] = day 7 of IIS wear, CBX IIS, n = 5
[11] = day 7 of IIS wear, Control IIS, n = 5

## insulin lispro
[1]
  severe or serious adverse events: No severe or serious adverse events
[2]; CBX group
  acceleration of median tmax by day 7 vs day 0: 61%
  decrease of median MRT from day 0 to day 7: 42%
  increase of median early exposure (AUC0–60) by day 7 vs day 0: 59%
  decline of median total insulin exposure (AUC0–300) from days 0 to 7: 22%
[2]; Control group
  acceleration of median tmax by day 7 vs day 0: 63%
  increase of median early exposure (AUC0–60) by day 7 vs day 0: 34%
  decline of median total insulin exposure (AUC0–300) from days 0 to 7: 26%
[2]; [4]
  AUC0–300 (area under the insulin concentration curve, 0 to 300 min): 8562 (6576–11416) mU/(min·L)
  Cmax (maximum insulin concentration): 60.4 (33.5–73.6) mU/L
  MRT (mean residence time): 129.5 (117.1–137.5) min
  t50% (early) (time to reach 50% of Cmax before peak): 23.3 (11.8–34.1) min
  t50% (late) (time to reach 50% of Cmax after peak): 163.1 (157.3–181.8) min
  tmax (time to maximum insulin concentration): 65.0 (50.0–90.0) min
[2]; [5]
  AUC0–300 (area under the insulin concentration curve, 0 to 300 min): 8894 (7599–9870) mU/(min·L)
  Cmax (maximum insulin concentration): 61.9 (45.0–82.5) mU/L
  MRT (mean residence time): 118.0 (97.9–131.0) min
  t50% (early) (time to reach 50% of Cmax before peak): 27.4 (19.8–32.7) min
  t50% (late) (time to reach 50% of Cmax after peak): 156.5 (121.2–174.5) min
  tmax (time to maximum insulin concentration): 67.5 (45.0–80.0) min
[2]; [6]
  AUC0–300 (area under the insulin concentration curve, 0 to 300 min): 8281 (7176–10737) mU/(min·L)
  Cmax (maximum insulin concentration): 69.0 (56.2–71.5) mU/L
  MRT (mean residence time): 114.4 (105.9–116.9) min
  t50% (early) (time to reach 50% of Cmax before peak): 18.0 (11.2–19.2) min
  t50% (late) (time to reach 50% of Cmax after peak): 135.4 (120.4–150.0) min
  tmax (time to maximum insulin concentration): 42.5 (35.0–45.0) min
[2]; [7]
  AUC0–300 (area under the insulin concentration curve, 0 to 300 min): 7434 (6600–8282) mU/(min·L)
  Cmax (maximum insulin concentration): 60.2 (56.2–69.7) mU/L
  MRT (mean residence time): 112.4 (104.1–124.3) min
  t50% (early) (time to reach 50% of Cmax before peak): 15.7 (12.2–25.6) min
  t50% (late) (time to reach 50% of Cmax after peak): 119.3 (98.8–152.7) min
  tmax (time to maximum insulin concentration): 32.5 (25.0–50.0) min
[2]; [8]
  AUC0–300 (area under the insulin concentration curve, 0 to 300 min): 8175 (7194–8538) mU/(min·L)
  Cmax (maximum insulin concentration): 93.6 (73.9–104.4) mU/L
  MRT (mean residence time): 89.0 (76.9–91.7) min
  t50% (early) (time to reach 50% of Cmax before peak): 12.4 (10.3–14.2) min
  t50% (late) (time to reach 50% of Cmax after peak): 74.8 (66.7–76.2) min
  tmax (time to maximum insulin concentration): 25.0 (25.0–30.0) min
[2]; [9]
  AUC0–300 (area under the insulin concentration curve, 0 to 300 min): 7253 (5949–7625) mU/(min·L)
  Cmax (maximum insulin concentration): 72.6 (54.1–91.0) mU/L
  MRT (mean residence time): 88.7 (85.7–110.5) min
  t50% (early) (time to reach 50% of Cmax before peak): 11.5 (8.2–13.1) min
  t50% (late) (time to reach 50% of Cmax after peak): 69.3 (68.2–88.3) min
  tmax (time to maximum insulin concentration): 25.0 (25.0–30.0) min
[2]; [10]
  AUC0–300 (area under the insulin concentration curve, 0 to 300 min): 6684 (6402–8342) mU/(min·L)
  Cmax (maximum insulin concentration): 92.3 (78.4–101.5) mU/L
  MRT (mean residence time): 75.7 (66.7–87.0) min
  t50% (early) (time to reach 50% of Cmax before peak): 11.6 (9.5–14.2) min
  t50% (late) (time to reach 50% of Cmax after peak): 62.5 (60.7–68.8) min
  tmax (time to maximum insulin concentration): 25.0 (25.0–25.0) min
[2]; [11]
  AUC0–300 (area under the insulin concentration curve, 0 to 300 min): 6603 (5822–6773) mU/(min·L)
  Cmax (maximum insulin concentration): 80.9 (79.0–84.0) mU/L
  MRT (mean residence time): 75.4 (62.2–98.6) min
  t50% (early) (time to reach 50% of Cmax before peak): 12.3 (11.5–16.4) min
  t50% (late) (time to reach 50% of Cmax after peak): 63.5 (57.5–77.9) min
  tmax (time to maximum insulin concentration): 25.0 (20.0–30.0) min
[2]; pooled data from both IIS groups, 0.15 U/kg bolus
  decline of AUC0–300 from days 0 to 7: ~24%
[3]; [4]
  AUC0–300(GIR) (area under the GIR curve from 0 to 300 min): 1205 (642.1–1219) mg/kg
  GIRmax (maximum glucose infusion rate): 8.4 (4.5–9.1) mg/(kg·min)
  Onset of action: 28.9 (21.4–39.0) min
  t50% (GIR, early) (time to reach 50% GIRmax before peak): 48.7 (25.7–63.5)
  t50% (GIR, late) (time to reach 50% GIRmax after peak): 187.4 (160.4–234.3)
  tmax(GIR) (time to reach GIRmax): 140.0 (80.0–170.0) min
[3]; [5]
  AUC0–300(GIR) (area under the GIR curve from 0 to 300 min): 1330 (790.6–1539) mg/kg
  GIRmax (maximum glucose infusion rate): 10.2 (7.7–11.7) mg/(kg·min)
  Onset of action: 76.1 (56.6–106.4) min
  t50% (GIR, early) (time to reach 50% GIRmax before peak): 67.6 (43.0–93.5)
  t50% (GIR, late) (time to reach 50% GIRmax after peak): 182.6 (164.3–247.3)
  tmax(GIR) (time to reach GIRmax): 145.0 (90.0–190.0) min
[3]; [6]
  AUC0–300(GIR) (area under the GIR curve from 0 to 300 min): 719.6 (652.3–864.3) mg/kg
  GIRmax (maximum glucose infusion rate): 7.41 (5.7–9.5) mg/(kg·min)
  Onset of action: 28.2 (12.1–34.0) min
  t50% (GIR, early) (time to reach 50% GIRmax before peak): 49.0 (37.7–95.0)
  t50% (GIR, late) (time to reach 50% GIRmax after peak): 157.6 (97.5–179.0)
  tmax(GIR) (time to reach GIRmax): 65.00 (60.0–120.0) min
[3]; [7]
  AUC0–300(GIR) (area under the GIR curve from 0 to 300 min): 743.1 (585.5–1268) mg/kg
  GIRmax (maximum glucose infusion rate): 5.2 (5.0–13.5) mg/(kg·min)
  Onset of action: 35.4 (29.0–41.4) min
  t50% (GIR, early) (time to reach 50% GIRmax before peak): 51.3 (44.9–55.6)
  t50% (GIR, late) (time to reach 50% GIRmax after peak): 147.8 (88.3–177.7)
  tmax(GIR) (time to reach GIRmax): 82.0 (60.0–110.0) min
[3]; [8]
  AUC0–300(GIR) (area under the GIR curve from 0 to 300 min): 663.5 (609.8–1332) mg/kg
  GIRmax (maximum glucose infusion rate): 8.1 (6.5–10.9) mg/(kg·min)
  Onset of action: 21.1 (18.4–23.8) min
  t50% (GIR, early) (time to reach 50% GIRmax before peak): 33.3 (28.7–37.0)
  t50% (GIR, late) (time to reach 50% GIRmax after peak): 92.6 (77.1–147.0)
  tmax(GIR) (time to reach GIRmax): 62.5 (50.0–70.0) min
[3]; [9]
  AUC0–300(GIR) (area under the GIR curve from 0 to 300 min): 695.2 (585.4–1395) mg/kg
  GIRmax (maximum glucose infusion rate): 9.1 (7.3–10.8) mg/(kg·min)
  Onset of action: 20.0 (16.4–23.0) min
  t50% (GIR, early) (time to reach 50% GIRmax before peak): 38.8 (30.6–39.1)
  t50% (GIR, late) (time to reach 50% GIRmax after peak): 106.8 (95.4–140.2)
  tmax(GIR) (time to reach GIRmax): 59.0 (55.0–60.0) min
[3]; [10]
  AUC0–300(GIR) (area under the GIR curve from 0 to 300 min): 883.0 (380.6–908.4) mg/kg
  GIRmax (maximum glucose infusion rate): 10.1 (4.9–11.3) mg/(kg·min)
  Onset of action: 18.8 (16.2–27.0) min
  t50% (GIR, early) (time to reach 50% GIRmax before peak): 32.2 (28.0–36.0)
  t50% (GIR, late) (time to reach 50% GIRmax after peak): 107.5 (105.9–117.8)
  tmax(GIR) (time to reach GIRmax): 55.0 (50.0–55.0) min
[3]; [11]
  AUC0–300(GIR) (area under the GIR curve from 0 to 300 min): 687.7 (386.7–1039) mg/kg
  GIRmax (maximum glucose infusion rate): 9.2 (6.9–11.5) mg/(kg·min)
  Onset of action: 27.5 (14.6–32.0) min
  t50% (GIR, early) (time to reach 50% GIRmax before peak): 48.1 (23.2–48.1)
  t50% (GIR, late) (time to reach 50% GIRmax after peak): 96.7 (87.1–109.5)
  tmax(GIR) (time to reach GIRmax): 70.0 (60.0–70.0) min
